According to US12522842B2, “Glutamine synthetase mutant having glufosinate resistance and application thereof and cultivation method therefor” (GEVOTO LLC, priority 2019, dated 2026):
Changes are numbered by the printed parent chain. Numbers in names are those of the source.

B1: TaGS_WT: wild-type wheat glutamine synthetase, SEQ ID NO. 2, control (protein, listed as Triticum aestivum)
chain: MALLTDLLNLDLTDSTEKIIAEYIWIGGSGMDLRSKARTLPGPVTDPSKLPKWNYDGSSTGQAPGEDSEVILYPQAIFKDPFRKGNNILVMCDCYTPAGVPIPTNKRYNAAKIFSNPDVAKEEPWYGIEQEYTLLQKDINWPLGWPVGGFPGPQGPYYCSIGADKSFGRDIVDSHYKACLFAGVNISGINGEVMPGQWEFQVGPTVGISAGDQVWVARYLLERITEIAGVVVTFDPKPIPGDWNGAGAHTNYSTESMRKDGGFKVIVDAVEKLKLKHKEHIAAYGEGNERRLTGKHETADINTFSWGVANRGASVRVGRETEQNGKGYFEDRRPASNMDPYVVTSMIAETTILWKP
B2: OR: rice GS mutant, H296R versus SEQ ID NO. 1 (SEQ ID NO. 32) (protein)
chain: MASLTDLVNLNLSDTTEKIIAEYIWIGGSGMDLRSKARTLSGPVTDPSKLPKWNYDGSSTGQAPGEDSEVILYPQAIFKDPFRKGNNILVMCDCYTPAGEPIPTNKRHNAAKIFSSPEVASEEPWYGIEQEYTLLQKDINWPLGWPVGGFPGPQGPYYCGIGADKSFGRDIVDSHYKACLYAGINISGINGEVMPGQWEFQVGPSVGISAGDQVWVARYILERITEIAGVVVSFDPKPIPGDWNGAGAHTNYSTKSMRNDGGYEIIKSAIEKLKLRHKEHISAYGEGNERRLTGRRETADINTFSWGVANRGASVRVGRETEQNGKGYFEDRRPASNMDPYIVTSMIAETTIIWKP
modifications: OR
B3: OsGR: rice GS mutant, S59G and H296R in SEQ ID NO. 1 (SEQ ID NO. 22) (protein)
chain: B2 chain with S59G
modifications: OsGR

Legend:
[1] = tested on: glutamine synthetase-deficient Escherichia coli; experiment: Growth of glutamine synthetase-deficient E. coli transformed with GS mutants in M9 medium containing glufosinate; assay type: cell-based; details: for growth of transformed GS-deficient E. coli (normal GS enzymatic activity): medium containing 0 mM glufosinate
Excerpt: According to the sequences of the nucleic acid molecules provided in Example 4, the nucleic acid sequences encoding rice GS mutants OsA, OsC, OsD, OsE, OsF, OsG, OsH, OsI, OsK, OsP, OST, OsV, and OsY were synthesized using chemical synthesis method. Restriction digestion sites (Pac1 and Sbf1) were introduced at both ends thereof, and after restriction digestion, they were linked under the action of ligase to an expression vector (such as pADV7 vector, whose structure is shown in FIG. 4) that was subjected to the same restriction digestion treatment. Then, glutamine synthetase-deficient Escherichia coli was transformed with the resultant. After verification, positive clones were picked up and inoculated in M9 medium containing different concentrations of glufosinate to grow, and the growth status of defective Escherichia coli was observed.
With wild-type rice GS (its amino acid sequence shown in SEQ ID NO. 1 and its encoding gene shown in SEQ ID NO. 4) as a negative control, the glufosinate resistance for the GS mutant OsA (S59A, wherein the amino acid S at site 59 of the rice GS is mutated into A), OsC (S59C), OsD (S59D), OsE (S59E), OsF (S59F), OsG (S59G), OsH (S59H), OsI (S591), OsK (S59K), OsP (S59P), OsT (S59T), OsV (S59V), OsY (S59Y) was detected.
With reference to the detection method of Experimental Example 1, glufosinate resistance of the rice GS mutant OsGR (S59G and H296R, the amino acid S at site 59 of rice GS is mutated into G and the amino acid H at site 296 is mutated into R), the wheat GS mutant TaGR (S59G and H296R, the amino acid S at site 59 of wheat GS is mutated into G and the amino acid H at site 296 is mutated into R), the soybean GS mutant GmGR (S59G and H296R, the amino acid S at site 59 of soybean GS is mutated into G and the amino acid H at site 296 is mutated into R) provided in Example 2 was verified.
With reference to Experimental example 1, the glufosinate resistance of rice GS mutants OA, OD, OE, OG, OI, OK, OM, OP, OQ, OR, OS, OT, and OV provided in Example 3 was detected according to the following method.
With wild-type rice GS as a negative control, the glufosinate resistance of GS mutants OA (H296A, amino acid H at site 296 of rice GS is mutated into A), OD (H296D), OE (H296E), OG (H296G), OI (H2961), OK (H296K), OM (H296M), OP (H296P), OQ (H296Q), OR (H296R), OS (H296S), OT (H296T), OV (H296V) was detected.

[2] = target: wheat GS (glutamine synthetase); experiment: Enzymatic activity of purified wheat GS: kinetic parameters and glufosinate IC50; assay type: biochemical, wheat (Triticum aestivum); details: inhibition of wheat GS by glufosinate; read-out: glufosinate resistance parameter IC50
Excerpt: (§1) OsC, OsF, OsG, OsH, OsP, and OsY provided in Example 1, OR provided in Example 3, and rice GS mutant OsGR and wheat GS mutant TaGR provided in Example 2 were detected for their enzymatic kinetic parameter, and enzymatic kinetic parameter in the presence of glufosinate, using wild-type rice GS OsGS_WT and wild-type wheat GS TaGS_WT as controls according to the following method.
(§2) The nucleic acid sequences encoding the above mutants were each cloned into a prokaryotic expression vector pET32a, and the clone was verified by sequencing.
(§3) The mutant enzyme protein was purified with 6His by a standard method, and its concentration was determined with a protein concentration assay kit with Bradford method. The protein was stored in a protein storage solution.
(§4) ELIASA (Detielab, HBS-1096A), glufosinate, substrate sodium L-glutamate (CAS: 6106-04-3).
(1) The composition of a reaction solution for determination of enzymatic activity of glutamine synthetase were as follows: 100 mM Tris-HCl (pH 7.5), 10 mM ATP, 20 mM sodium L-glutamate, 30 mM hydroxylamine, 20 mM MgCl2. 100 μl of the reaction solution after mixed thoroughly was preheated at 35° C. for 5 min, and 10 μl of mutant protein solution (protein concentration of 200 μg/ml) was added to start the reaction. […] The absorbance at 540 nm was measured.

rice (Nipponbare) = experiment: Glufosinate resistance of transgenic rice after spraying 1x field dose; assay type: in vivo; details: 1x glufosinate, 450 g/ha, day 7 after spraying
Excerpt: The glufosinate resistance resulting from the OR mutants provided in Example 3 in transgenic rice was detected according to the following method.
The nucleic acid sequence encoding OR was inserted into the pGVP1 vector (see FIG. 11) according to a conventional method to obtain the pGVP1-OR vector.
The pGVP1-OR vector was transformed into competent cells of EHA105 (Agrobacterium tumefaciens), the monoclonal was picked up for colony PCR detection, and positive strains were obtained; then the positive strains were inoculated into 1 mL YEP medium containing 50 μg·mL^−1 kanamycin and 50 μg·mL^−1 rifampicin for propagation, and stored at −80° C. or used in subsequent experiments. […]
Rice plants transformed with OR mutant gene were detected using the PCR method, forward and reverse detection primers were designed according to pGVP1-OR vector sequence and rice reference gene, the PCR amplification products were assayed by 1.5% agarose gel electrophoresis, and those with bands at 452 bp and 629 bp were transgenic plants.
The transplanted transgenic rice seedlings were evenly arranged in the same experimental area (to avoid overlapping leaves). The area of occupied regions of the experimental group and the control group was calculated. […]

[3] = target: rice GS (glutamine synthetase); experiment: Enzymatic activity of purified rice GS: kinetic parameters and glufosinate IC50; assay type: biochemical, rice (Oryza sativa); details: inhibition of rice GS by glufosinate
Excerpt: as §1, §2, §3, §4
(1) The composition of a reaction solution for determination of enzymatic activity of glutamine synthetase were as follows: 100 mM Tris-HCl (pH 7.5), 10 mM ATP, 20 mM sodium L-glutamate, 30 mM hydroxylamine, 20 mM MgCl2. 100 μl of the reaction solution after mixed thoroughly was preheated at 35° C. for 5 min, and 10 μl of mutant protein solution (protein concentration of 200 μg/ml) was added to start the reaction. After reaction at 35° C. for 30 min, 110 μl of color developing solution (55 g/L FeCl3·6H2O, 20 g/L trichloroacetic acid, 2.1% concentrated hydrochloric acid) was added to terminate the reaction. The absorbance at 540 nm was measured.

Molecule | growth of transformed E. coli (glufosinate resistance) ([1]; media containing 2 mM, 5 mM, 10 mM, and 20 mM glufosinate) | growth of transformed GS-deficient E. coli (normal GS enzymatic activity) [1] | IC50 [2] | growth of transformed E. coli (glufosinate resistance) ([1]; medium containing 10 mM glufosinate) | growth of transformed E. coli (glufosinate resistance) ([1]; medium containing 20 mM glufosinate) | growth of transformed E. coli (glufosinate resistance) ([1]; medium containing 50 mM glufosinate) | performance of transgenic rice seedlings after spraying glufosinate (rice (Nipponbare)) | glufosinate resistance parameter IC50 [3] | growth of transformed E. coli (glufosinate resistance) ([1]; media containing 10 mM, 20 mM and 300 mM glufosinate) | growth of transformed E. coli (glufosinate resistance) ([1]; medium containing 300 mM glufosinate)
B1 | could hardly grow | could normally grow | 600 µM |  |  |  |  |  |  | 
B2 |  | could normally grow |  | significantly superior to that of the wild type | significantly grew | still significantly grew | not significantly affected by glufosinate and continued to grow | much higher than those of the wild-type controls |  | 
B3 |  | could normally grow |  |  |  |  |  | much higher than those of the wild-type controls | grew significantly | grew significantly
